Blank lines part the entries; values can stand above or below the binder they belong to.
How the values were obtained:
[1] = target: T1, mature TGFα (R&D Systems, 239-A) (human, UniProt P01135 40-89); experiment: ELISA on immobilized mature TGFα (R&D Systems, 239-A)
[2] = target: T1, mature TGFα (R&D Systems, 239-A); experiment: ELISA on immobilized mature TGFα, COS-7 supernatant
[3] = target: T1, mature TGFα (R&D Systems, 239-A); experiment: ELISA on immobilized TGFα (R&D Systems, 239-A)

- binding result [1]: binds
B1: mouse hybridoma anti-TGFα antibody #2-20 (antibody, V domains shown)
VH: DVQLQESGPGLVKPSQSLSLTCTVTGYSITSDYAWNWIRLFPGNKLEWMGFINYSGNTSYNPSLKSRISITRDTSKNQFFLKLNSLTTDDTATYYCARGGLSRFPYWGQGTLVTVSA
VL: DIQMTQTTSSLSASLGDRVTISCRSSQDIRNYLNWYQQKPDGTVKLLIYYTSRSHSGVPSRFSGSGSGTDYSLTISNLEQEDIATYFCQQGNMFPFTFGGGTKLEIK
notes: Mouse IgG purified from hybridoma supernatant; also called #2-20 antibody; mouse #2-20 antibody

- binding result [2]: binds
B2: #2-20 recombinant human chimeric antibody (#2-20 VH/VL with human IgG1 constant region) (antibody)
heavy: not shown
light: DIQMTQTTSSLSASLGDRVTISCRSSQDIRNYLNWYQQKPDGTVKLLIYYTSRSHSGVPSRFSGSGSGTDYSLTISNLEQEDIATYFCQQGNMFPFTFGGGTKLEIKRTVAAPSVFIFPPSDEQLKSGTASVVCLLNNFYPREAKVQWKVDNALQSGNSQESVTEQDSKDSTYSLSSTLTLSKADYEKHKVYACEVTHQGLSSPVTKSFNRGEC
notes: Transiently expressed in COS-7 and tested as culture supernatant

- binding result [3]: binds
B3: EP19 monoclonal antibody (mouse hybridoma anti-EREG antibody) (antibody, V domains shown)
VH: EVQLQQSGPELEKPGASVKISCKASGYSFTGYNMNWVKQSNGKSLEWIGNIDPYYGAASYNQKFKGKATLTVDKSSSTAYMQLKSLTSEDSAVYYCARSQLPYWYFDVWGAGTTVTVSS
VL: DIVMTQSPSSLTVTAGEKVTMSCKSSQSLLNSGNQKNYLTWYQQKPGQPPKLLIYWASTRESGVPDRFTGSGSGTDFTLTISSVQAEDLAVYYCQNDYSYPYTFGGGTKLEIK
notes: Hybridoma antibody from WO 2008/047723; The variable region entries may include leader residues; also called EP19 antibody

- binding result [2]: binds
B4: #2-20 mouse chimeric IgG2a recombinant antibody (#2-20 VH/VL with mouse IgG2a constant region) (antibody)
heavy: DVQLQESGPGLVKPSQSLSLTCTVTGYSITSDYAWNWIRLFPGNKLEWMGFINYSGNTSYNPSLKSRISITRDTSKNQFFLKLNSLTTDDTATYYCARGGLSRFPYWGQGTLVTVSAAKTTAPSVYPLAPVCGGTTGSSVTLGCLVKGYFPEPVTLTWNSGSLSSGVHTFPALLQSGLYTLSSSVTVTSNTWPSQTITCNVAHPASSTKVDKKIEPRVPITQNPCPPLKECPPCAAPDLLGGPSVFIFPPKIKDVLMISLSPMVTCVVVDVSEDDPDVQISWFVNNVEVHTAQTQTHREDYNSTLRVVSALPIQHQDWMSGKEFKCKVNNRALPSPIEKTISKPRGPVRAPQVYVLPPPAEEMTKKEFSLTCMITGFLPAEIAVDWTSNGRTEQNYKNTATVLDSDGSYFMYSKLRVQKSTWERGSLFACSVVHEGLHNHLTTKTISRSLGK
light: DIQMTQTTSSLSASLGDRVTISCRSSQDIRNYLNWYQQKPDGTVKLLIYYTSRSHSGVPSRFSGSGSGTDYSLTISNLEQEDIATYFCQQGNMFPFTFGGGTKLEIKRADAAPTVSIFPPSSEQLTSGGASVVCFLNNFYPKDINVKWKIDGSERQNGVLNSWTDQDSKDSTYSMSSTLTLTKDEYERHNSYTCEATHKTSTSPIVKSFNRNEC
notes: Transiently expressed in COS-7 and tested as culture supernatant; also called recombinant mouse chimeric IgG2a antibody; mouse IgG2a antibody
